Data taken from US20260234255A1 (Genmab, published 2026).

Legend:
human CD30 [1] = target: T1, human CD30 (human, UniProt P28908 19-595); experiment: flow cytometry, HDLM-2 cells, experiment N = 1
T1 construct: The same molecule is used for CD30 on HL/ALCL/NHL cell lines; also called huCD30; TNFRSF8
T1 sequence: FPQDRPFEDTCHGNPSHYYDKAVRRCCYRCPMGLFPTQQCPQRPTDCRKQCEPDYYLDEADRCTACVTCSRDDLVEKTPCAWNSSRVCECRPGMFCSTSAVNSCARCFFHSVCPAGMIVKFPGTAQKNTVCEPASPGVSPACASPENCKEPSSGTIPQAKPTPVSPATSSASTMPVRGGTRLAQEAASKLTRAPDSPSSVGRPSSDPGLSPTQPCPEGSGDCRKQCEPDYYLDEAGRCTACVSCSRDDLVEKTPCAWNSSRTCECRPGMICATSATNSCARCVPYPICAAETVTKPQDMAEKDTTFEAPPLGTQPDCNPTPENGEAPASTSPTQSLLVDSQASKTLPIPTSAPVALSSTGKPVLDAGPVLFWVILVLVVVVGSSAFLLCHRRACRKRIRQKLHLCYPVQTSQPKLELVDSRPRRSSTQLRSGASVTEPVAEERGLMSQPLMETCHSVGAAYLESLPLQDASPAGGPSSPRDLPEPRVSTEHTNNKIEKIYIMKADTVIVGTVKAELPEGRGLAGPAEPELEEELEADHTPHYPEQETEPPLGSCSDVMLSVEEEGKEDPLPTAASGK

human CD30 [2] = target: T1, human CD30; experiment: flow cytometry, KI-JK cells (ALCL), range of 3 tests
Experimental: (§1) Cells (3×10⁴ cells/well) were incubated in polystyrene 96-well round-bottom plates (Greiner bio-one, cat. no. 650180) with serial dilutions of antibodies (range 0.0046 to 10 μg/mL in 3-fold dilution steps) in 50 μL staining buffer at 4° C. for 30 min. After washing twice in staining buffer, cells were incubated with 50 μL secondary antibody at 4° C. for 30 min. […] Next, cells were washed twice in staining buffer, resuspended in 100 μL staining buffer supplemented with TO-PRO-3 iodide (Thermo Fisher Scientific; cat. no. T3605; 1:8000 dilution) and analyzed on a FACSCelesta flow cytometer (BD Biosciences, USA). Live cells were gated based on FSC/SSC and absence of TOPRO-3 staining. Binding curves were analyzed by non-linear regression of log-transformed data (sigmoidal dose-response with variable slope, four parameters) using GraphPad Prism V7.02 software (GraphPad Software, San Diego, CA, USA).

human CD30 [3] = target: T1, human CD30; experiment: flow cytometry, DEL cells (ALCL), range of 3 tests
Experimental: as §1

human CD30 [4] = target: T1, human CD30; experiment: flow cytometry, HDLM-2 cells (HL), average of 3 tests
Experimental: as §1

complement protein C1q = target: T2, complement protein C1q (human, UniProt P02745 23-245; P02746 28-253; P02747 29-245); experiment: flow cytometry with FITC anti-C1q; antibody-opsonized activated human CD8+ T cells, 20% normal human serum as the source of C1q
T2 construct: 20% human serum was used as the source of C1q
T2 sequence (P02745 23-245 limits assumed, chain 1 of 3): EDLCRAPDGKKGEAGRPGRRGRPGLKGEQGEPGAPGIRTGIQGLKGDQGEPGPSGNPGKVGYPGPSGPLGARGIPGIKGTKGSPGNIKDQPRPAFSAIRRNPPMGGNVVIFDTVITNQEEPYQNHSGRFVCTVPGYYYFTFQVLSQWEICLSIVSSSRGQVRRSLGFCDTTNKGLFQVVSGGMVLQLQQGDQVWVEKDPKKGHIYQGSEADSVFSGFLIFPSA
T2 sequence (P02746 28-253 limits assumed, chain 2 of 3): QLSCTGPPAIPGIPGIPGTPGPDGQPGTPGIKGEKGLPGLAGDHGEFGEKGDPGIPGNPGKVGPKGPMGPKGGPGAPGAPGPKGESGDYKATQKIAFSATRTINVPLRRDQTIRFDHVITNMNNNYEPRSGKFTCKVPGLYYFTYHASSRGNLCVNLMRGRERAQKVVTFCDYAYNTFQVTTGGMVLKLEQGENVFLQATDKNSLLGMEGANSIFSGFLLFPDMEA
T2 sequence (P02747 29-245 limits assumed, chain 3 of 3): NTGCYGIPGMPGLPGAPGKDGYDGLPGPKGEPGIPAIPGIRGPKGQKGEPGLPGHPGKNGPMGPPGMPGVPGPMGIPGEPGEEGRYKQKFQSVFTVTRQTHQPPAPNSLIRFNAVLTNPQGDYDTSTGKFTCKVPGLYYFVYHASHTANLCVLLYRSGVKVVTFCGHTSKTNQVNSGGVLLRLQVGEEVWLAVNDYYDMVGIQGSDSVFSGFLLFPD
Experimental: Activated CD8⁺ T cells were seeded in a round-bottom 96-well plate (30,000 cells/well), pelleted, and resuspended in 30 μL assay medium (RPMI-1640 with 25 mM HEPES and L-glutamine, supplemented with 0.1% [w/v] bovine serum albumin fraction V (BSA; Roche, cat. no. 10735086001) and penicillin/streptomycin).
Human serum (20 μL/well; Sanquin, lot 20L15-02), as a source of C1q, was added to a final concentration of 20%. Cells were incubated on ice for 45 min, followed by two washes with cold GMB FACS buffer and incubation with 50 μL fluorescein isothiocyanate (FITC)-conjugated rabbit anti-human C1q (final concentration of 20 μg/mL (DAKO, cat no. F0254); diluted 1:75 in GMB FACS buffer) in the presence or absence of allophycocyanin-conjugated mouse-anti-CD8 (BD Biosciences, cat. no. 555369; diluted 1:50 in GMB FACS buffer) in the dark at 4° C. for 30 min. […] C1q binding to viable cells (as identified by DAPI exclusion) was analyzed by flow cytometry on an iQue3 Screener (Intellicyt Corporation). Data were analyzed using iQue software (Intellicyt Corporation, ForeCyt® Enterprise Client Edition 6.2 [R3], Version 6.2.652).

Binder	EC50 (human CD30 [1])	EC50 (human CD30 [2])	EC50 (human CD30 [3])	EC50 (human CD30 [4])	binding result (complement protein C1q)
bsG1-huCD3-FEALxCD30-MDX060-FEAR (bispecific antibody, human IgG1, kappa, lambda, also called bsG1-huCD3xCD30-MDX060) heavy 1: not shown light 1: not shown heavy 2: QVQLQQWGAGLLKPSETLSLTCAVYGGSFSAYYWSWIRQPPGKGLEWIGDINHGGGTNYNPSLKSRVTISVDTSKNQFSLKLNSVTAADTAVYYCASLTAYWGQGSLVTVSSASTKGPSVFPLAPSSKSTSGGTAALGCLVKDYFPEPVTVSWNSGALTSGVHTFPAVLQSSGLYSLSSVVTVPSSSLGTQTYICNVNHKPSNTKVDKRVEPKSCDKTHTCPPCPAPEFEGGPSVFLFPPKPKDTLMISRTPEVTCVVVAVSHEDPEVKFNWYVDGVEVHNAKTKPREEQYNSTYRVVSVLTVLHQDWLNGKEYKCKVSNKALPAPIEKTISKAKGQPREPQVYTLPPSREEMTKNQVSLTCLVKGFYPSDIAVEWESNGQPENNYKTTPPVLDSDGSFFLYSRLTVDKSRWQQGNVFSCSVMHEALHNHYTQKSLSLSPG light 2: DIQMTQSPTSLSASVGDRVTITCRASQGISSWLTWYQQKPEKAPKSLIYAASSLQSGVPSRFSGSGSGTDFTLTISSLQPEDFATYYCQQYDSYPITFGQGTRLEIKRTVAAPSVFIFPPSDEQLKSGTASVVCLLNNFYPREAKVQWKVDNALQSGNSQESVTEQDSKDSTYSLSSTLTLSKADYEKHKVYACEVTHQGLSSPVTKSFNRGEC	0.145 µg/mL				
bsG1-huCD3-FEALxCD30-MDX060-FERR (bispecific antibody, human IgG1, kappa, lambda, Bispecific IgG1 made by controlled Fab-arm exchange; also called bsIgG1-huCD3-FEALxCD30-MDX060-FERR; bsG1-huCD3×CD30-MDX060) heavy 1: not shown light 1: not shown heavy 2: QVQLQQWGAGLLKPSETLSLTCAVYGGSFSAYYWSWIRQPPGKGLEWIGDINHGGGTNYNPSLKSRVTISVDTSKNQFSLKLNSVTAADTAVYYCASLTAYWGQGSLVTVSSASTKGPSVFPLAPSSKSTSGGTAALGCLVKDYFPEPVTVSWNSGALTSGVHTFPAVLQSSGLYSLSSVVTVPSSSLGTQTYICNVNHKPSNTKVDKRVEPKSCDKTHTCPPCPAPEFERGPSVFLFPPKPKDTLMISRTPEVTCVVVDVSHEDPEVKFNWYVDGVEVHNAKTKPREEQYNSTYRVVSVLTVLHQDWLNGKEYKCKVSNKALPAPIEKTISKAKGQPREPQVYTLPPSREEMTKNQVSLTCLVKGFYPSDIAVEWESNGQPENNYKTTPPVLDSDGSFFLYSRLTVDKSRWQQGNVFSCSVMHEALHNHYTQKSLSLSPG light 2: DIQMTQSPTSLSASVGDRVTITCRASQGISSWLTWYQQKPEKAPKSLIYAASSLQSGVPSRFSGSGSGTDFTLTISSLQPEDFATYYCQQYDSYPITFGQGTRLEIKRTVAAPSVFIFPPSDEQLKSGTASVVCLLNNFYPREAKVQWKVDNALQSGNSQESVTEQDSKDSTYSLSSTLTLSKADYEKHKVYACEVTHQGLSSPVTKSFNRGEC		0.143 to 0.258 µg/mL	0.143 to 0.267 µg/mL	0.167 µg/mL	no binding (tested: about 30 µg/mL)
